In PMC10786891, “Massively parallel profiling of RNA-targeting CRISPR-Cas13d” one finds Kd data, which are given here for 23 molecules.

B1: target 2 MT 5'PFS AAA 3'PFS AUA (mixed)
RNA 1: CACCCGUGCAAAAUUGCAGGGGUCUAAAACCUUCUCCAAAUUGUUUCAUCCU
RNA 2: GGGAAUGGAUCCACAUCUACGAAUUCAAAAGGAUGAAACAAUUUGGAGAAGAUAAGAUCGGAAGAGCACACGU
B2: target 2 MT 5'PFS AAC 3'PFS CUG (mixed)
RNA 1: CACCCGUGCAAAAUUGCAGGGGUCUAAAACCUUCUCCAAAUUGUUUCAUCCU
RNA 2: GGGAAUGGAUCCACAUCUACGAAUUCAACAGGAUGAAACAAUUUGGAGAAGCUGAGAUCGGAAGAGCACACGU
B3: target 2 MT 5'PFS AAC 3'PFS AAC (mixed)
RNA 1: CACCCGUGCAAAAUUGCAGGGGUCUAAAACCUUCUCCAAAUUGUUUCAUCCU
RNA 2: GGGAAUGGAUCCACAUCUACGAAUUCAACAGGAUGAAACAAUUUGGAGAAGAACAGAUCGGAAGAGCACACGU
B4: target 2 MT 5'PFS UAC 3'PFS CAA (mixed)
RNA 1: CACCCGUGCAAAAUUGCAGGGGUCUAAAACCUUCUCCAAAUUGUUUCAUCCU
RNA 2: GGGAAUGGAUCCACAUCUACGAAUUCUACAGGAUGAAACAAUUUGGAGAAGCAAAGAUCGGAAGAGCACACGU
B5: target 2 MT 5'PFS GGC 3'PFS UAU (mixed)
RNA 1: CACCCGUGCAAAAUUGCAGGGGUCUAAAACCUUCUCCAAAUUGUUUCAUCCU
RNA 2: GGGAAUGGAUCCACAUCUACGAAUUCGGCAGGAUGAAACAAUUUGGAGAAGUAUAGAUCGGAAGAGCACACGU
B6: target 2 MT 5'PFS UAC 3'PFS CAU (mixed)
RNA 1: CACCCGUGCAAAAUUGCAGGGGUCUAAAACCUUCUCCAAAUUGUUUCAUCCU
RNA 2: GGGAAUGGAUCCACAUCUACGAAUUCUACAGGAUGAAACAAUUUGGAGAAGCAUAGAUCGGAAGAGCACACGU
B7: target 2 MT 5'PFS UCG 3'PFS CGG (mixed)
RNA 1: CACCCGUGCAAAAUUGCAGGGGUCUAAAACCUUCUCCAAAUUGUUUCAUCCU
RNA 2: GGGAAUGGAUCCACAUCUACGAAUUCUCGAGGAUGAAACAAUUUGGAGAAGCGGAGAUCGGAAGAGCACACGU
B8: target 2 MT 5'PFS UAC 3'PFS CAC (mixed)
RNA 1: CACCCGUGCAAAAUUGCAGGGGUCUAAAACCUUCUCCAAAUUGUUUCAUCCU
RNA 2: GGGAAUGGAUCCACAUCUACGAAUUCUACAGGAUGAAACAAUUUGGAGAAGCACAGAUCGGAAGAGCACACGU
B9: target 2 MT 5'PFS GCG 3'PFS AAU (mixed)
RNA 1: CACCCGUGCAAAAUUGCAGGGGUCUAAAACCUUCUCCAAAUUGUUUCAUCCU
RNA 2: GGGAAUGGAUCCACAUCUACGAAUUCGCGAGGAUGAAACAAUUUGGAGAAGAAUAGAUCGGAAGAGCACACGU
B10: target 2 MT 5'PFS GUU 3'PFS CGC (mixed)
RNA 1: CACCCGUGCAAAAUUGCAGGGGUCUAAAACCUUCUCCAAAUUGUUUCAUCCU
RNA 2: GGGAAUGGAUCCACAUCUACGAAUUCGUUAGGAUGAAACAAUUUGGAGAAGCGCAGAUCGGAAGAGCACACGU
B11: target 2 MT 5'PFS GUU 3'PFS CGA (mixed)
RNA 1: CACCCGUGCAAAAUUGCAGGGGUCUAAAACCUUCUCCAAAUUGUUUCAUCCU
RNA 2: GGGAAUGGAUCCACAUCUACGAAUUCGUUAGGAUGAAACAAUUUGGAGAAGCGAAGAUCGGAAGAGCACACGU
B12: target 2 MT 5'PFS AAA 3'PFS ACG (mixed)
RNA 1: CACCCGUGCAAAAUUGCAGGGGUCUAAAACCUUCUCCAAAUUGUUUCAUCCU
RNA 2: GGGAAUGGAUCCACAUCUACGAAUUCAAAAGGAUGAAACAAUUUGGAGAAGACGAGAUCGGAAGAGCACACGU
B13: target 2 MT 5'PFS AUU 3'PFS CCA (mixed)
RNA 1: CACCCGUGCAAAAUUGCAGGGGUCUAAAACCUUCUCCAAAUUGUUUCAUCCU
RNA 2: GGGAAUGGAUCCACAUCUACGAAUUCAUUAGGAUGAAACAAUUUGGAGAAGCCAAGAUCGGAAGAGCACACGU
B14: target 2 MT 5'PFS AUU 3'PFS CCG (mixed)
RNA 1: CACCCGUGCAAAAUUGCAGGGGUCUAAAACCUUCUCCAAAUUGUUUCAUCCU
RNA 2: GGGAAUGGAUCCACAUCUACGAAUUCAUUAGGAUGAAACAAUUUGGAGAAGCCGAGAUCGGAAGAGCACACGU
B15: target 2 MT 5'PFS UCG 3'PFS CGC (mixed)
RNA 1: CACCCGUGCAAAAUUGCAGGGGUCUAAAACCUUCUCCAAAUUGUUUCAUCCU
RNA 2: GGGAAUGGAUCCACAUCUACGAAUUCUCGAGGAUGAAACAAUUUGGAGAAGCGCAGAUCGGAAGAGCACACGU
B16: target 2 MT 5'PFS UAC 3'PFS CAG (mixed)
RNA 1: CACCCGUGCAAAAUUGCAGGGGUCUAAAACCUUCUCCAAAUUGUUUCAUCCU
RNA 2: GGGAAUGGAUCCACAUCUACGAAUUCUACAGGAUGAAACAAUUUGGAGAAGCAGAGAUCGGAAGAGCACACGU
B17: target 2 MT 5'PFS GUU 3'PFS CGG (mixed)
RNA 1: CACCCGUGCAAAAUUGCAGGGGUCUAAAACCUUCUCCAAAUUGUUUCAUCCU
RNA 2: GGGAAUGGAUCCACAUCUACGAAUUCGUUAGGAUGAAACAAUUUGGAGAAGCGGAGAUCGGAAGAGCACACGU
B18: target 2 MT 5'PFS AAC 3'PFS CUU (mixed)
RNA 1: CACCCGUGCAAAAUUGCAGGGGUCUAAAACCUUCUCCAAAUUGUUUCAUCCU
RNA 2: GGGAAUGGAUCCACAUCUACGAAUUCAACAGGAUGAAACAAUUUGGAGAAGCUUAGAUCGGAAGAGCACACGU
B19: target 2 MT 5'PFS AAC 3'PFS CUC (mixed)
RNA 1: CACCCGUGCAAAAUUGCAGGGGUCUAAAACCUUCUCCAAAUUGUUUCAUCCU
RNA 2: GGGAAUGGAUCCACAUCUACGAAUUCAACAGGAUGAAACAAUUUGGAGAAGCUCAGAUCGGAAGAGCACACGU
B20: target 2 MT 5'PFS UCG 3'PFS CGA (mixed)
RNA 1: CACCCGUGCAAAAUUGCAGGGGUCUAAAACCUUCUCCAAAUUGUUUCAUCCU
RNA 2: GGGAAUGGAUCCACAUCUACGAAUUCUCGAGGAUGAAACAAUUUGGAGAAGCGAAGAUCGGAAGAGCACACGU
B21: target 1 insA 3' of 12,insA 3' of 4 (mixed)
RNA 1: CACCCGUGCAAAAAUGCAGGGGUCUAAAACUGAGCGGAUAACCUCUCUAUGG
RNA 2: GGGAAUGGAUCCACAUCUACGAAUUCGUACCAUAGAGAGGAUUAUCCGCAUCACCGAGAUCGGAAGAGCACACGU
B22: target 1 G12C,G15A (mixed)
RNA 1: CACCCGUGCAAAAAUGCAGGGGUCUAAAACUGAGCGGAUAACCUCUCUAUGG
RNA 2: GGGAAUGGAUCCACAUCUACGAAUUCGUACCAUAGAAAGCUUAUCCGCUCACCGAGAUCGGAAGAGCACACGU
B23: target 1 C2A,C21U (mixed)
RNA 1: CACCCGUGCAAAAAUGCAGGGGUCUAAAACUGAGCGGAUAACCUCUCUAUGG
RNA 2: GGGAAUGGAUCCACAUCUACGAAUUCGUACUAUAGAGAGGUUAUCCGCUAACCGAGAUCGGAAGAGCACACGU

The data set concerns the target T1, EsCas13d, nuclease-dead (Eubacterium siraeum, UniProt B0MS50, R295A;H300A;R849A;H854A).
T1 sequence: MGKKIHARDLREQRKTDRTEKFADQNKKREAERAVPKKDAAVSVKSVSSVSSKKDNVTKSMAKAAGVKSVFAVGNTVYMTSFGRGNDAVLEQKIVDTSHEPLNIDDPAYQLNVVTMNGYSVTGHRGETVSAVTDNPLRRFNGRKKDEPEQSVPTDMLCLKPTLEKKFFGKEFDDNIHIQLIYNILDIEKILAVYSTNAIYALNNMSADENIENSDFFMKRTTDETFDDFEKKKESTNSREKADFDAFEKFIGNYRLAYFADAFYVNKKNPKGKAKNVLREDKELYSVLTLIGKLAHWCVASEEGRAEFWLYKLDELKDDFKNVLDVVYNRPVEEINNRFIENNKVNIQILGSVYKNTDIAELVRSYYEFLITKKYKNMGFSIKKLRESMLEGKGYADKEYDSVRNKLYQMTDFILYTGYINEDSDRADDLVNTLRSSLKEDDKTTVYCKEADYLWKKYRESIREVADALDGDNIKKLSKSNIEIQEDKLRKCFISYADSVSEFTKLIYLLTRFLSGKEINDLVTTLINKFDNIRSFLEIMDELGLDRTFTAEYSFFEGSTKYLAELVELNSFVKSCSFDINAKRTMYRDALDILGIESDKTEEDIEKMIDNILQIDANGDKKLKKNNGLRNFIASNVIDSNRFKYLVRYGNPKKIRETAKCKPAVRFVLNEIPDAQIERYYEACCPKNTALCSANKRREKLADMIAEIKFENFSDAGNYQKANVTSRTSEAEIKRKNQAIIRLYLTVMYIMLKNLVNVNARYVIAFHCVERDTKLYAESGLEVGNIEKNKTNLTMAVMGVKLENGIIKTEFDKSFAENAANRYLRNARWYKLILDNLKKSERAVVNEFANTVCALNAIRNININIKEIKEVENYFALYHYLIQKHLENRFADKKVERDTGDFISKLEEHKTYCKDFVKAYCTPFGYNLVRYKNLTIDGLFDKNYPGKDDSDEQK
The data set can be described thus: crRNA (strand 1, pre-loaded); Mg2+; 40 mM Tris-HCl pH 7.5, 150 mM NaCl, 6 mM MgCl2, 1 mM DTT, 0.1% Tween-20, 0.2 mg/ml BSA; 25 C; 10 min per concentration, then washed. The note with it: tags: His6-TwinStrep-SUMO cleaved; N-terminal SNAP kept (SNAP-Surface 488); label: 3' end held by stalled T7 RNA polymerase.
Regarding B1, the equilibrium dissociation constant (Kd) – broadly, the free concentration of one partner at which half of the binding sites on the other are occupied at equilibrium, for simple one-to-one binding – worked out at 4.4 ± 1 nM.
With B2 the figure was 7.3 ± 1.3 nM; with B3, 8.8 ± 3.5 nM.
Under B4 stands 6 ± 1.1 nM; under B5, 12.4 ± 1.5 nM.
In the case of B6, the Kd came to 10 ± 2.3 nM.
Under B7 stands 55 ± 16 nM.
Under B8 stands 5.3 ± 1 nM.
Under B9 stands 8.4 ± 1.3 nM; under B10, 11.4 ± 0.7 nM; under B11, 15.2 ± 1.5 nM.
B12: the Kd came to 4.4 ± 0.5 nM.
In turn, B13 registered a Kd of 14.8 ± 2.7 nM.
Molecule B14 had a Kd of 9.8 ± 1.1 nM.
With B15 the figure was 30 ± 6 nM; with B16, 8.5 ± 3 nM.
With B17 the figure was 17 ± 1.6 nM; with B18, 9.1 ± 2.7 nM; with B19, 9 ± 3 nM.
Take B20: the affinity, expressed as Kd, was 33 ± 15 nM.
As to B21, the affinity, expressed as Kd, was 19.2 ± 1.2 nM.
Regarding B22, binding was characterised by a dissociation constant (Kd) of 50 ± 16 nM.
With B23 the figure was 8.2 ± 0.5 nM.
